Results taken from patent US20190119403A1 (published 2019).

Biological target: human cathepsin B (Recombinant Human Procathepsin B, Novoprotein, converted into active form) (human, UniProt P07858 80-333)
Test: enzyme inhibition

B1: Stefin A-derived antibody Fab (Fab, V domains shown)
VH: not shown
VL: DIQMTQSPSSLSASVGDRVTITCRASQDVNVVAGTTAVAWYQQKPGKAPKLLIYGGSKSLPGQNEDLSGGFLYSGVPSRFSGSRSGTDFTLTISSLQPEDFATYYCQQHLGGPITTPPTFGQGTKLEIKR
With B1 the Ki was 225 nM.
